US9297028B2, “Fermentive production of four carbon alcohols” (Butamax Advanced Biofuels LLC, priority 2005, dated 2016)

What was measured:
[1] = Acetoacetyl-CoA thiolase activity in cell free extracts (decrease in absorbance at 303 nm); assay type: biochemical
Description: Acetoacetyl-CoA thiolase activity in the cell free extracts was measured as degradation of a Mg^2+-acetoacetyl-CoA complex by monitoring the decrease in absorbance at 303 nm. Standard assay conditions were 100 mM Tris-HCl pH 8.0, 1 mM DTT (dithiothreitol) and 10 mM MgCl2. The cocktail was equilibrated for 5 min at 37° C.; then the cell-free extract was added. The reaction was initiated with the addition of 0.05 mM acetoacetyl-CoA plus 0.2 mM CoA. Protein concentration was measured by either the Bradford method or by the Bicinchoninic Kit (Sigma, catalog no. BCA-1). Bovine serum albumin (Bio-Rad, Hercules, Calif.) was used as the standard in both cases. In one typical assay, the specific activity of the ThlA protein in the induced culture was determined to be 16.0 μmol mg^−1 min^−1 compared to 0.27 μmol mg^−1 min^−1 in the uninduced culture.
(§1) For enzyme activity analysis, a single colony of each strain was streaked onto a fresh plate containing SD minimal drop out medium and incubated at 30° C. for 2 days. The cells on this plate were used to inoculate 20 mL of SD drop out medium and in a 125 mL shake flask and grown overnight at 30° C., with shaking at 250 rpm. The optical density (OD600) of the overnight culture was measured, and the culture was diluted to an OD600=0.1 in 250 mL of the same medium in a 1.0 L shake flask, and grown at 30° C. with shaking at 250 rpm to an OD600 of between 0.8 to 1.0. The cells were then harvested by centrifugation at 2000×g for 10 min, and resuspended in 20 mL of 50 mM Tris-HCl buffer, pH 8.5. Enzyme assays were performed as described above.

[2] = Hydroxybutyryl-CoA dehydrogenase activity (rate of oxidation of NADH, absorbance at 340 nm); assay type: biochemical
Description: Hydroxybutyryl-CoA dehydrogenase activity was determined by measuring the rate of oxidation of NADH as measured by the decrease in absorbance at 340 nm. A standard assay mixture contained 50 mM MOPS, pH 7.0, 1 mM DTT and 0.2 mM NADH. The cocktail was equilibrated for 5 min at 37° C. and then the cell free extract was added. Reactions were initiated by addition of the substrate, 0.1 mM acetoacetyl-CoA. In one typical assay, the specific activity of the BHBD protein in the induced culture was determined to be 57.4 μmol mg^−1 min^−1 compared to 0.885 μmol mg^−1 min^−1 in the uninduced culture.
as §1

[3] = yeast strain DPD5200 (BY4743/pNY103), standard conditions
[4] = yeast strain DPD5206 (BY4741/pNY102)

Row | Substance | ThlA activity ([1]; yeast BY4741 containing pNY10 (thlA with one base deletion, truncated protein), in words) | ThlA activity ([1]; yeast BY4741 transformed with pNY12 (FBA1 promoter)) | ThlA enzyme activity [1, 3] | ThlA activity [1, 4] | Hbd activity ([2]; yeast BY4741 containing pNY10, hbd under GPD promoter) | Hbd activity ([2]; yeast strain BY4741 (pNY6), in words) | Hbd enzyme activity [2, 3] | Hbd activity [2, 4] | Hbd activity ([2]; yeast, GALL promoter controlled hbd)
1 | ThlA: acetyl-CoA acetyltransferase encoded by thlA from C. acetobutylicum ATCC 824, SEQ ID NO:2 | no ThlA activity | 1.66 U/mg | 0.49 U/mg | 1.24 U/mg | – | – | – | – | –
2 | BHBD: 3-hydroxybutyryl-CoA dehydrogenase encoded by hbd from C. acetobutylicum ATCC 824, SEQ ID NO:6 | – | – | – | – | 1.8 U/mg | good | 0.21 U/mg | 0.76 U/mg | 0.40 U/mg
